B1: Serine/threonine-protein kinase PknB (Mycobacterium tuberculosis (strain ATCC 25618 / P9WI81 (parent)
chain: MTTPSHLSDRYELGEILGFGGMSEVHLARDLRLHRDVAVKVLRADLARDPSFYLRFRREAQNAAALNHPAIVAVYDTGEAETPAGPLPYIVMEYVDGVTLRDIVHTEGPMTPKRAIEVIADACQALNFSHQNGIIHRDVKPANIMISATNAVKVMDFGIARAIADSGNSVTQTAAVIGTAQYLSPEQARGDSVDARSDVYSLGCVLYEVLTGEPPFTGDSPVSVAYQHVREDPIPPSARHEGLSADLDAVVLKALAKNPENRYQTAAEMRADLVRVHNGEPPEAPKVLTDAERTSLLSSAAGNLSGPRTDPLPRQDLDDTDRDRSIGSVGRWVAVVAVLAVLTVVVTIAINTFGGITRDVQVPDVRGQSSADAIATLQNRGFKIRTLQKPDSTIPPDHVIGTDPAANTSVSAGDEITVNVSTGPEQREIPDVSTLTYAEAVKKLTAAGFGRFKQANSPSTPELVGKVIGTNPPANQTSAITNVVIIIVGSGPATKDIPDVAGQTVDVAQKNLNVYGFTKFSQASVDSPRPAGEVTGTNPPAGTTVPVDSVIELQVSKGNQFVMPDLSGMFWVDAEPRLRALGWTGMLDKGADVDAGGSQHNRVVYQNPPAGTGVNRDGIITLRFGQ
partner: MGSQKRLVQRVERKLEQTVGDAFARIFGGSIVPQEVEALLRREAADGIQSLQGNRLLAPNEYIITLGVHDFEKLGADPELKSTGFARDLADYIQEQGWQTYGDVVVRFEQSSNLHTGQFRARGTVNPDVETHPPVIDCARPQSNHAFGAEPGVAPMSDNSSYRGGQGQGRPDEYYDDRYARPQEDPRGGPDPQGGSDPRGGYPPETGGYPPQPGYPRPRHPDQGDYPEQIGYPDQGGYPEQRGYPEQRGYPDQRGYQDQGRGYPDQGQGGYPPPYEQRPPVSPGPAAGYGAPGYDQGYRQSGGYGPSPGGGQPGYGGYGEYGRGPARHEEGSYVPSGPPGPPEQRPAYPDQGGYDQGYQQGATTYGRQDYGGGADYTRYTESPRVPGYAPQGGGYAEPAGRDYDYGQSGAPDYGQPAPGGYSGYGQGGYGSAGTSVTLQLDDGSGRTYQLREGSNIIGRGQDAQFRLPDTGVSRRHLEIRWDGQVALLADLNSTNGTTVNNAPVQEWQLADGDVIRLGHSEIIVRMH
B2: FHA domain-containing protein FhaA (Mycobacterium tuberculosis (strain ATCC 25618 / P71590 (parent)
chain: B1 partner
partner: B1 chain

Variants of: B1
Details: with fhaa_myctu fhaA

Row | Variant | effect of a mutation on the interaction
1 | T294A | increasing interaction
2 | T309A | increasing interaction

Variants of: B2
Details: with pknb_myctu pknB

Row | Variant | effect of a mutation on the interaction
3 | MGSQKRLVQRVERKLEQTVGDAFARIFGGSIVPQEVEALLRREAADGIQSLQGNRLLAPNEYIITLGVHDFEKLGADPELKSTGFARDLADYIQEQGWQTYGDVVVRFEQSSNLHAGQFRARGTVNPDVETHPPVIDCARPQSNHAFGAEPGVAPMSDNSSYRGGQGQGRPDEYYDDRYARPQEDPRGGPDPQGGSDPRGGYPPETGGYPPQPGYPRPRHPDQGDYPEQIGYPDQGGYPEQRGYPEQRGYPDQRGYQDQGRGYPDQGQGGYPPPYEQRPPVSPGPAAGYGAPGYDQGYRQSGGYGPSPGGGQPGYGGYGEYGRGPARHEEGSYVPSGPPGPPEQRPAYPDQGGYDQGYQQGATTYGRQDYGGGADYTRYTESPRVPGYAPQGGGYAEPAGRDYDYGQSGAPDYGQPAPGGYSGYGQGGYGSAGTSVTLQLDDGSGRTYQLREGSNIIGRGQDAQFRLPDTGVSRRHLEIRWDGQVALLADLNSTNGTTVNNAPVQEWQLADGDVIRLGHSEIIVRMH [T116A] | disrupting interaction

— IntAct's records for PubMed 22000520
